Assay results taken from article PMC8216288.

What was measured:
[1] = target: GST-pICln S193, 195, 197D (phospho-mimicking aspartate mutant) (human) (UniProt P54105); experiment: SPR; Biacore T200; GST-pICln immobilised by amine coupling on CM5 chip (400 RU), SmG as analyte; multi-cycle, 20°C, 10 μl/min; 300 mM NaCl, 50 mM Tris/HCl pH 7.5, 1 mM EDTA, 1 mM EGTA; steady-state fit; n = 3
[2] = test system: Sm core (heptameric ring SmB/D1/D2/D3/E/F/G) assembled from GFP-pICln immunoprecipitate, detected by Y12 supershift; experiment: EMSA with Y12 supershift; settings: S100 assembly: 50 ug extract, 2 ug tRNA, 5 mM ATP, 1 ul RNAsin in 20 ul PBS, 35 C, 45 min, native RNA gel, pH not stated, GFP-pICln IP with or without ATP and …

Chain of GST-pICln S193, 195, 197D (phospho-mimicking aspartate mutant) (human) (P54105 other isoform, or with tags, fused parts or gaps mutant): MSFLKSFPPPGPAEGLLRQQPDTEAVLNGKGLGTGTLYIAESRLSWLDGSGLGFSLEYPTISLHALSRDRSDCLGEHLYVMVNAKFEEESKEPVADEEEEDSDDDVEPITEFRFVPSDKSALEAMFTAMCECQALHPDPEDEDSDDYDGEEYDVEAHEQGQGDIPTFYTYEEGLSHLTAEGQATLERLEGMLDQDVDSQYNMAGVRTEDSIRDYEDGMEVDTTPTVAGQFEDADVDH

Kd [1] [µM]	Substance	binding signal (fold vs IP alone) ([2]; +ATP + ULK2, stated as no effect)	binding signal (fold vs IP alone) ([2]; +ATP + active ULK1)	binding signal (fold vs IP alone) ([2]; +ATP)	binding signal (fold (reference)) [2]
84.7	SmG purified from E. coli (SPR analyte) (from UniProt P62308 1-76) (natural protein)				
	U1 snRNA	1.3	2.6	1.4	1
